From US20210380707A1 (published 2021)

T1: human CD70 (human, UniProt P32970 1-193)
T1 construct: Endogenous CD70 in FFPE cells and tissue sections, detected by IHC; also called CD70 antigen
T1 sequence: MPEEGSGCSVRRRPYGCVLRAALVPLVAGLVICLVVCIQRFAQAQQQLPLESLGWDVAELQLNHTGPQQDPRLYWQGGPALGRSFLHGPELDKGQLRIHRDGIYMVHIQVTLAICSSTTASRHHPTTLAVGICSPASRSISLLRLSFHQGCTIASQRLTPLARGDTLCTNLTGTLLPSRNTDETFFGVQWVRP


Experiments:
human CD70 [1] = target: T1, human CD70; test: IHC Leica BOND, ER2, FFPE ACHN cells, 5 µg/mL
Description: (§1) The following IHC evaluation was performed using a Leica BOND™ RX autostainer and BOND™ Polymer Refine Detection kit. These antibodies were tested at 5 μg/mL or 8 μg/mL concentration on a panel of CD70 positive cell line controls and a renal clear cell carcinoma tissue microarray (RCC TMA). All incubation steps were performed at room temperature with wash cycles in between each step unless otherwise stated. Briefly, pretreatment of FFPE slides was performed using the Bake and Dewax function. It was followed by a HIER step with Epitope Retrieval solution 2 (ER2) for 20 minutes at 100° C. Next, tissues were incubated with primary antibody for 60 minutes, followed by incubation with post primary and then polymer reagents for 15 minutes each. The antibody-antigen binding was visualized by brown DAB Refine stain for 10 minutes and counter-stained blue with Hematoxylin for 5 minutes. […] Upon completion of IHC staining experiment, stained tissues were scan using a Pannoramic MIDI II brightfield whole slide scanner and staining was visualized using CaseViewer software.

human CD70 [2] = target: T1, human CD70; test: IHC Leica BOND, ER2, FFPE HH cells, 5 µg/mL
Description: as §1

human CD70 [3] = target: T1, human CD70; test: IHC Leica BOND, ER2, FFPE ACHN cells, 8 µg/mL
Description: as §1

| binding result (human CD70 [1]) | Binder | also measured |
| --- | --- | --- |
| binds | 18F8A8 (antibody, IgG1, V domains shown, Mouse hybridoma antibody, IgG1, Kappa; Only variable domains are printed) VH: QVTLKESGPGILQPSQTLSLTCSFSGFSLSTSNMGVAWIRQPLGKGLEWLLYILWNDTKYYNPALKSRLSISKDTYNNQVFLKIVNVDTADTATYYCARIRRDYALDYWGQGTSVTVSS VL: DIVMSQSPSSLAVSVGEKVTMNCKSSQSLLYSNNQKNYLAWYQQKPGQSPKLLIYWASTRESGVPDRFTGSGSGTDFTLTISSVKAEDLAVYYCQQYYIYPLAFGGGTKLEIK |  |
| binds | 19H7E4 (antibody, IgG1, V domains shown, Mouse hybridoma antibody, IgG1, Kappa; Only variable domains are printed) VH: QVTLKESGPGILQPSQTLSLTCSFSGFSLSTSNVGVGWIRQPSGKGLEWLLHILWNDGKYYNPALKSRLTISKDTSTNQVFLKIADVDTADSATYYCARLRRDYGMDYWGQGTSVTVSS VL: DIVMSQSPSSLAVSVGEKVTMSCKSSQSLLYSYNQKNYLAWYQQKPGQSPKLLIYWASTRESGVPDRFTGSGSGTDFTLTISSVKAEDLAVYYCQQYYTYPYAFGGGTKLEIK |  |
| binds | 16D7C8 (antibody, IgG3, V domains shown, Mouse hybridoma antibody, IgG3, Kappa; Only variable domains are printed) VH: QVQLQQSGPELVKPGASVRISCKASGYTFTSFYIHWVKQRPGQGLEWIGWISPINININYNEKFKGKATLTADKSSSTVYMQLSSLTSEDSAVYFCEGTSENFDVWGAGTTVTVSS VL: DVLMTQIPLSLPVSLGDQASISCRSTQNIVHSNGNTYLEWYLQKPGQSPKLLIYKVSNRFSGVPDRFRGSGSGTEFTLKITRVEADDLGVYYCFQGSHVPFTFGAGTKLELK |  |
|  | 3H11D12E7 (antibody, V domains shown, Mouse IgG1, Kappa; Only variable domains are printed; also called recombinantly expressed 3H11D12E7) VH: QIQLVQSGPELKKPGETVKISCKASGYTFTDYSMHWVKQAPGKGLKWMGWINTETGEPTYADDFKGRFAFSLETSASTAYLQINNLKNDDTATYFCARSFYRYDWYFDVWGAGTTVTVSS VL: QIVLTQSPAIMSASPGEKVTITCSASSSVSFMHWFQQKPGTSPKLWIYSTSNLASGVPARFSGSGSGTSYSLTISRMEAEDAATYYCQQRTSFPPTFGGGTNLEIK | binding result (human CD70 [2]): binds |
| binds | 4E6G9 (antibody, V domains shown, Mouse IgG1, Kappa; Only variable domains are printed; also called 4E6G9 antibody (Ms IgG1, kappa); recombinant antibody 4E6G9) VH: QIQLVQSGPELKKAGETVKISCKASGYTFAAYSMHWVKQAPGKGLKWMGWINTETGEPTYADDFKGRFAFSLETSASTAYLQINNLKNEDTATYFCTRDDYDGGRFSYWYFAVWGAGTTVTVSS VL: DIQMTQSPSSLSASLGGKVTITCKASQDINKYIAWYQHRPGKGPRLLIRYTSTLQPGIPSRFSGSGSGRDYSFSINNLEPEDIATYYCLQYDNLLTFGGGTKLEIK |  |
|  | 11G12B6 (antibody, V domains shown, Mouse hybridoma antibody, IgG1, Kappa; Only variable domains are printed) VH: QVTLKESGPGILKPSQTLSLTCSFSGFSLSTSGLAVGWIRQPSGKGLEWLSHIWWNDDKYYNPSLKNQLTISKDTSRNQVFLKIISVDTADTATYYCSAYFGGKNYWGQGTALTVSS VL: DIVMTQSPSSLTVTAGEKVTMSCKSSQSLLNSGNQKNYLTWYQQKPGQPPKLLVYWASTRESGVPDRFTGSGSGTDFTLTISTVQAEDLAVYYCQNDYSYPLTFGAGTKLELK | binding result (human CD70 [3]): binds |
